Laboratory results: US20250092135A1 (NANJING LEADS BIOLABS, published 2025)

T1: rhesus monkey MUC16 protein (ECT_TM RhMuc16) on 293T cells (rhesus monkey)
T1 chain: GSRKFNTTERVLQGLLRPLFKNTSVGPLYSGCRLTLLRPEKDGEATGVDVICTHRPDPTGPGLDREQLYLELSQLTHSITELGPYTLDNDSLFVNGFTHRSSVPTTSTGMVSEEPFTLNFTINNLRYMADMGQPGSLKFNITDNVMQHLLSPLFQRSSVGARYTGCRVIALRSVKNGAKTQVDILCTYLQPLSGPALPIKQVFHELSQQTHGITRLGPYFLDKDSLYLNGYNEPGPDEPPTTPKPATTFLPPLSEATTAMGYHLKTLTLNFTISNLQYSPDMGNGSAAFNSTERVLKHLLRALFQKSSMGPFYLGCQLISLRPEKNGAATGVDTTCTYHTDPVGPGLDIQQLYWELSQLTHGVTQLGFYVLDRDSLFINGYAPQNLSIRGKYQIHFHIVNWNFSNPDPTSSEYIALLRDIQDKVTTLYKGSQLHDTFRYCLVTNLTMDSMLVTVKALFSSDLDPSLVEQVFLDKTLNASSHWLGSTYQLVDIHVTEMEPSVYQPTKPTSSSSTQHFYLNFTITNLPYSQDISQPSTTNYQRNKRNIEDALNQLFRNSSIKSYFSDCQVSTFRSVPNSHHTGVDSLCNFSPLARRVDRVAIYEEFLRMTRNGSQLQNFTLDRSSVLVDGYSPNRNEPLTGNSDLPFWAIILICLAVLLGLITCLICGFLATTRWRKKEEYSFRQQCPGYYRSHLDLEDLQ


What was measured:
[1] = target: T2, human CD3 protein endogenously expressed on Jurkat cells (human, UniProt P07766 23-207); experiment: flow cytometry, Jurkat cells (endogenous CD3), PE anti-human IgG Fc secondary, MFI; EC50 table under the plot, unit from the axis Conc.(nM)
T2 construct: whole, on cells; The whole CD3 complex is on the cells; also called CD3 on Jurkat cells; CD3 on Jurkat/NFAT-luc cells
Protocol: (§1) (3) Whether the anti-CD3/anti-MUC16 bispecific antibodies in the present invention could bind to the CD3 protein endogenously expressed on Jurkat cells (Cell Bank of Type Culture Collection Committee of the Chinese Academy of Sciences, Cat #SCSP-513) was determined by cell binding experiments. Detection was performed using the flow cytometry described above, with the following differences: the dilution gradient for the test bispecific antibody was: a maximum concentration of 200 nM, starting from a second concentration of 100 nM, 5-fold dilution, 10 points; the bispecific antibodies were added to Jurkat cells, and the cells were incubated at 4° C. for 30 min. The cells were washed twice with PBS, and then fluorescent secondary antibody R-PE-conjugated AffiniPure Goat Anti-Human IgG, Fcγ Fragment Specific was added. The cells were incubated at 4° C. for 30 min. The cells were washed twice with PBS and then resuspended, and finally, fluorescence signals were detected using a BD Accuri C5 (BD Bioscience) flow cytometer.

[2] = target: T3, human MUC16 protein endogenously expressed on cells (human, UniProt Q8WXI7 1-14507); experiment: flow cytometry, OVCAR3 cells (endogenous human MUC16), PE anti-human IgG Fc secondary, MFI; EC50 table under the plot, unit from the axis Conc.(nM)
T3 construct: whole, on cells; also called MUC16 on OVCAR3 cells; MUC16 in ovarian carcinoma tissue
Protocol: (1) Whether the anti-CD3/anti-MUC16 bispecific antibodies in the present invention could bind to the MUC16 protein endogenously expressed on human ovarian carcinoma cells (OVCAR3) (Cell Bank of Type Culture Collection Committee of the Chinese Academy of Sciences, Cat #TCHu228) was determined by cell binding experiments.
The experiments were performed using flow cytometry. OVCAR3 cells were digested, centrifuged and collected. The cells were resuspended in a PBS solution, and seeded into a 96-well plate (Corning, Cat #3799) at 1×10⁵ cells/well. The 96-well plate was centrifuged and then the supernatant was discarded. 100 μL of the serially diluted test bispecific antibody (at a maximum concentration of 200 nM, 5-fold dilution from 100 nM, 9 concentration points in total) was added to the OVCAR3 cells. The plate was incubated at 4° C. for 30 min and centrifuged (1000 rpm, 5 min), and then the supernatant was discarded. 100 μL of PBS solution was added to each well, and the cells were washed twice. 100 μL of fluorescent secondary antibody R-PE-conjugated AffiniPure Goat Anti-Human IgG, Fcγ Fragment Specific (Jackson ImmunoResearch, Cat #109-116-098) diluted in a ratio of 1:200 was then added. The cells were incubated at 4° C. for 30 min. After the cells were washed twice with the PBS solution, 100 μL of PBS solution was added to each well to resuspend the cells, and finally, fluorescence signals were detected using a BD Accuri C5 (BD Bioscience) flow cytometer according to the manufacturer's instructions. REGN4018 was used as a positive control.

[3] = target: T1, rhesus monkey MUC16 protein (ECT_TM …); experiment: flow cytometry, 293T/rhesus MUC16 cells as printed on the sheet and in the legend (the example, paragraph 611, speaks of cynomolgus MUC16), PE anti-human IgG Fc secondary, MFI; EC50 table under the plot, unit from the axis Conc.(nM); curve still rising at the top concentration of 100 nM
Protocol: (§2) Referring to the flow cytometry described above, the serially diluted test bispecific antibody (at an initial concentration of 100 nM, 5-fold dilution, 9 points) was added to the cells, and the plate was incubated at 4° C. for 30 min. The cells were washed twice with PBS, and then fluorescent secondary antibody R-PE-conjugated AffiniPure Goat Anti-Human IgG, Fcγ Fragment Specific was added. The cells were incubated at 4° C. for 30 min. The cells were washed twice with PBS and then resuspended, and finally, fluorescence signals were detected using a BD Accuri C5 (BD Bioscience) flow cytometer.

[4] = target: T2, human CD3 protein endogenously …; experiment: flow cytometry, Jurkat cells (endogenous CD3), PE anti-human IgG Fc secondary, MFI; EC50 table under the plot, unit from the axis Conc.(nM); curve still rising at the top concentration
Protocol: as §1

[5] = target: T1, rhesus monkey MUC16 protein (ECT_TM …); experiment: flow cytometry, 293T/rhesus MUC16 cells as printed on the sheet and in the legend (the example, paragraph 611, speaks of cynomolgus MUC16), PE anti-human IgG Fc secondary, MFI; EC50 table under the plot, unit from the axis Conc.(nM); curve still rising at the top concentration of 100 nM, the value lies beyond the range shown
Protocol: as §2

[6] = target: T1, rhesus monkey MUC16 protein (ECT_TM …); experiment: flow cytometry, 293T/rhesus MUC16 cells as printed on the sheet and in the legend (the example, paragraph 611, speaks of cynomolgus MUC16), PE anti-human IgG Fc secondary, MFI; EC50 table under the plot, unit from the axis Conc.(nM)
Protocol: as §2

T2 sequence (P07766 23-207): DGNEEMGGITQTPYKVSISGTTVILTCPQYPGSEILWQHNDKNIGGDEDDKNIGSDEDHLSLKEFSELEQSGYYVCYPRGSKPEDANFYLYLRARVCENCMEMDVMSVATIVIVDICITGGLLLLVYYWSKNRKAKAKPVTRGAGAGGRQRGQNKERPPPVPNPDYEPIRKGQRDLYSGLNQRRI

Row | EC50 [1] [nM] | EC50 [2] [nM] | EC50 [3] [nM] | EC50 [4] [nM] | EC50 [5] [nM] | EC50 [6] [nM] | Binder
1 | 14 | 2.78 | 48.4 |  |  |  | anti-CD3/MUC16 bispecific antibody 2MCH7-23L2 (bispecific antibody, human IgG1, kappa, L234A L235A, 2MCH7-KIH-Knob (VH-CH1-VH-CH1-Fc) + 23L2ScFv-Hole + two light chains MCL4 LC) heavy 1: not shown heavy 2: EVQLVESGGGLVQPGGSLKLSCAASGFTFSTYAMNWVRQAPGKGLEWVGRIRSKYNNYATYYADSVKDRFTISRDDSKNTLYLQMNSLKTEDTAVYYCTRHGNFGNSYVSWFAYWGQGTTVTVSSGGGGSGGGGSGGGGSQAVVTQEPSLTVSPGGTVTLTCRSSTGAVTTSNYANWVQQKPGQAPRGLIGGTNKRAPGVPARFSGSLLGGKAALTLSGAQPEDEAEYFCALWYSNLWVFGGGTKLTVLGEPKSSDKTHTCPPCPAPEAAGGPSVFLFPPKPKDTLMISRTPEVTCVVVAVSHEDPEVKFNWYVDGVEVHNAKTKPREEQYNSTYRVVSVLTVLHQDWLNGKEYKCKVSNKALAAPIEKTISKAKGQPREPQVCTLPPSRDELTKNQVSLSCAVKGFYPSDIAVEWESNGQPENNYKTTPPVLDSDGSFFLVSKLTVDKSRWQQGNVFSCSVMHEALHNHYTQKSLSLSPGK light: EIVLTQSPATLSLSPGERATLSCRASSSVIYMSWYQQKPGQAPRLLIYGTSTLASGIPARFSGSGSGTDFTLTISSLEPEDFAVYYCQQWSSNPFTFGQGTKLEIKRTVAAPSVFIFPPSDEQLKSGTASVVCLLNNFYPREAKVQWKVDNALQSGNSQESVTEQDSKDSTYSLSSTLTLSKADYEKHKVYACEVTHQGLSSPVTKSFNRGEC
2 |  | 17.2 |  | 70.7 | 182 |  | anti-CD3/MUC16 bispecific antibody MCH7-23L2 (bispecific antibody, human IgG1, kappa, L234A L235A, 23L2ScFv-Hole + MCH7-KIH-Knob + one light chain MCL4 LC) heavy 1: EVQLVESGGGLVQPGGSLKLSCAASGFTFSTYAMNWVRQAPGKGLEWVGRIRSKYNNYATYYADSVKDRFTISRDDSKNTLYLQMNSLKTEDTAVYYCTRHGNFGNSYVSWFAYWGQGTTVTVSSGGGGSGGGGSGGGGSQAVVTQEPSLTVSPGGTVTLTCRSSTGAVTTSNYANWVQQKPGQAPRGLIGGTNKRAPGVPARFSGSLLGGKAALTLSGAQPEDEAEYFCALWYSNLWVFGGGTKLTVLGEPKSSDKTHTCPPCPAPEAAGGPSVFLFPPKPKDTLMISRTPEVTCVVVAVSHEDPEVKFNWYVDGVEVHNAKTKPREEQYNSTYRVVSVLTVLHQDWLNGKEYKCKVSNKALAAPIEKTISKAKGQPREPQVCTLPPSRDELTKNQVSLSCAVKGFYPSDIAVEWESNGQPENNYKTTPPVLDSDGSFFLVSKLTVDKSRWQQGNVFSCSVMHEALHNHYTQKSLSLSPGK heavy 2: not shown light: EIVLTQSPATLSLSPGERATLSCRASSSVIYMSWYQQKPGQAPRLLIYGTSTLASGIPARFSGSGSGTDFTLTISSLEPEDFAVYYCQQWSSNPFTFGQGTKLEIKRTVAAPSVFIFPPSDEQLKSGTASVVCLLNNFYPREAKVQWKVDNALQSGNSQESVTEQDSKDSTYSLSSTLTLSKADYEKHKVYACEVTHQGLSSPVTKSFNRGEC
3 |  | 1.45 |  |  |  | 3.74 | control antibody REGN4018 (bispecific antibody, human IgG4 S228P, kappa, Derived from US20190389966A1; heavy chains REGN4018-8767pH and REGN4018-G20, light chain REGN4018-8767pL; also called positive control) heavy 1: QVQLVESGGGLVKPGGSLRLSCAASGFTFSNYYMSWVRQAPGKGLEWISYISGRGSTIFYADSVKGRITISRDNAKNSLFLQMNSLRAEDTAVYFCVKDRGGYSPYWGQGTLVTVSSASTKGPSVFPLAPCSRSTSESTAALGCLVKDYFPEPVTVSWNSGALTSGVHTFPAVLQSSGLYSLSSVVTVPSSSLGTKTYTCNVDHKPSNTKVDKRVESKYGPPCPPCPAPPVAGPSVFLFPPKPKDTLMISRTPEVTCVVVDVSQEDPEVQFNWYVDGVEVHNAKTKPREEQFNSTYRVVSVLTVLHQDWLNGKEYKCKVSNKGLPSSIEKTISKAKGQPREPQVYTLPPSQEEMTKNQVSLTCLVKGFYPSDIAVEWESNGQPENNYKTTPPVLDSDGSFFLYSRLTVDKSRWQEGNVFSCSVMHEALHNHYTQKSLSLSLGK heavy 2: EVQLVESGGGLVQPGRSLRLSCAASGFTFDDYSMHWVRQAPGKGLEWVSGISWNSGSIGYADSVKGRFTISRDNAKNSLYLQMNSLRAEDTALYYCAKYGSGYGKFYYYGMDVWGQGTTVTVSSASTKGPSVFPLAPCSRSTSESTAALGCLVKDYFPEPVTVSWNSGALTSGVHTFPAVLQSSGLYSLSSVVTVPSSSLGTKTYTCNVDHKPSNTKVDKRVESKYGPPCPPCPAPPVAGPSVFLFPPKPKDTLMISRTPEVTCVVVDVSQEDPEVQFNWYVDGVEVHNAKTKPREEQFNSTYRVVSVLTVLHQDWLNGKEYKCKVSNKGLPSSIEKTISKAKGQPREPQVYTLPPSQEEMTKNQVSLTCLVKGFYPSDIAVEWESNGQPENNYKTTPPVLDSDGSFFLYSRLTVDKSRWQEGNVFSCSVMHEALHNRFTQKSLSLSLGK light: not shown
